Source: US20230390362A1, “USE OF TRIGONAL AGONIST HAVING ACTIVITIES TO ALL OF GLUCAGON, GLP-1, AND GIP RECEPTORS IN TREATMENT OF SEQUELAE FOLLOWING RESPIRATORY INFECTIOUS DISEASES” (HANMI PHARM. CO., LTD., priority 2020, published 2023)
Numbering of substitutions follows the chain as printed. Positions of bridges follow the written chain, without caps; N, C: chain ends. Non-standard residues stand in square brackets, D forms with d. No end group written: not given here. *: point of attachment. Acetyl(2-(4-imidazolyl)) = O=C(Cc1c[nH]cn1)*; Aib = CC(C)(N)C(=O)O

T1: human GIP receptor (human, UniProt P48546 22-466)
T1 sequence (looked up): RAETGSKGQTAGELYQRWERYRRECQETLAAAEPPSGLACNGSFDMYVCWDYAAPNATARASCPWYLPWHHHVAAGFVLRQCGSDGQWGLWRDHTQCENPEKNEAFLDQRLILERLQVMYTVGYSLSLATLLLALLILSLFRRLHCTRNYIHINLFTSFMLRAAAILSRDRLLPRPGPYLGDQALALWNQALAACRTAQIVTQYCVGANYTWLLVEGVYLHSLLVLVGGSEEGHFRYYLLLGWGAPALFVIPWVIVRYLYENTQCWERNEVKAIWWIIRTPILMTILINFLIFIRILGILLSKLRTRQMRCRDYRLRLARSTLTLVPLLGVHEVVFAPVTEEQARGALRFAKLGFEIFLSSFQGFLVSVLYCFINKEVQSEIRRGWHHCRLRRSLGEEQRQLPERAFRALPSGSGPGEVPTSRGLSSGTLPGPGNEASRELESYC

B1: trigonal agonist of SEQ ID NO: 53 (peptide)
peptide: H[Aib]EGTFTSDYSIAMDEIHQKDFVNWLLAQC
modifications: bridge 16-20
B2: trigonal agonist of SEQ ID NO: 41 (peptide)
peptide: H[Aib]QGTFTSDKSKYLDECAAQDFVQWLLDGGPSSGAPPPS
B3: trigonal agonist of SEQ ID NO: 44 (peptide)
peptide: HGQGTFTSDCSKQLDGQAAQEFVAWLLAGGPSSGAPPPS
B4: trigonal agonist of SEQ ID NO: 45 (peptide)
peptide: B3 peptide with Q13Y, L14M, E21D
B5: trigonal agonist of SEQ ID NO: 48 (peptide)
peptide: B3 peptide with Q13Y, A18R, E21D, A24N
B6: trigonal agonist of SEQ ID NO: 46 (peptide)
peptide: B3 peptide with Q13Y, G16E, A18H
B7: trigonal agonist of SEQ ID NO: 47 (peptide)
peptide: B3 peptide with Q13Y, A18R
B8: trigonal agonist of SEQ ID NO: 43 (peptide)
peptide: Y[Aib]QGTFTSDYSKYLDEKRAKEFVQWLLDHHCSSGQPPPS
modifications: bridge 16-20
B9: trigonal agonist of SEQ ID NO: 40 (peptide)
peptide: H[Aib]QGTFTSDKSKYLDERACQDFVQWLLDGGPSSGAPPPS
B10: trigonal agonist of SEQ ID NO: 38 (peptide)
peptide: {Acetyl(2-(4-imidazolyl))}-[Aib]QGTFTSDKSSYLDERAAQDFVQWLLDGGPSSGAPPPSS
B11: trigonal agonist of SEQ ID NO: 39 (peptide)
peptide: H[Aib]QGTFTSDYSKYLDGQHAQCFVAWLLAGGGPSSGAPPPS
B12: trigonal agonist of SEQ ID NO: 57 (peptide)
peptide: H[Aib]QGTFTSDYSIAMDEIHQKDFVNWLLNTC
modifications: bridge 16-20
B13: trigonal agonist of SEQ ID NO: 35 (peptide)
peptide: H[Aib]QGTFTSDYSIAMDEIHQKDFVNWLLNTKC
modifications: bridge 16-20
B14: trigonal agonist of SEQ ID NO: 51 (peptide)
peptide: H[Aib]QGTFTSDYSKYLDEKRQKEFVQWLLNTC
modifications: bridge 16-20
B15: trigonal agonist of SEQ ID NO: 54 (peptide)
peptide: H[Aib]EGTFTSDYSIAMDEIHQKDFVDWLLAEC
modifications: bridge 16-20
B16: trigonal agonist of SEQ ID NO: 50 (peptide)
peptide: H[Aib]QGTFTSDYSKYLDEKRAKEFVQWLLDHHPSSGQPPPSC
modifications: bridge 16-20
B17: trigonal agonist of SEQ ID NO: 4 (peptide)
peptide: H[Aib]QGTFTSDVSSYLLGQQQKEFIAWLVKGC
B18: trigonal agonist of SEQ ID NO: 42 (peptide)
peptide: Y[Aib]QGTFTSDYSKYLDEKRAKEFVQWLLDHHPSSGQPPPSC
modifications: bridge 16-20
B19: trigonal agonist of SEQ ID NO: 6 (peptide)
peptide: H[Aib]QGTFTSDVSSYLDGQAAKEFVAWLLKGC
B20: trigonal agonist of SEQ ID NO: 37 (peptide)
peptide: H[Aib]QGTFTSDYSKYLDECRQKEFVQWLLNGGPSSGAPPPSG
modifications: bridge 16-20
B21: trigonal agonist of SEQ ID NO: 55 (peptide)
peptide: H[Aib]QGTFTSDYSIAMDEIHQKDFVNWLLAQC
modifications: bridge 16-20
B22: trigonal agonist of SEQ ID NO: 59 (peptide)
peptide: {Acetyl(2-(4-imidazolyl))}-[Aib]QGTFTSDYSICMDEKHQKDFVNWLLNTK
modifications: bridge 15-19
B23: trigonal agonist of SEQ ID NO: 5 (peptide)
peptide: H[Aib]QGTFTSDVSSYLLGQQQKEFIAWLVKGGGPSSGAPPPSC
B24: trigonal agonist of SEQ ID NO: 52 (peptide)
peptide: H[Aib]QGTFTSDYSKYLDEKRQKEFVQWLLDTC
modifications: bridge 16-20
B25: trigonal agonist of SEQ ID NO: 34 (peptide)
peptide: H[Aib]QGTFTSDYSKYLDEKRQKEFVNWLLAQKC
modifications: bridge 16-20
B26: trigonal agonist of SEQ ID NO: 36 (peptide)
peptide: H[Aib]QGTFTSDYSKYLCEKRQKEFVQWLLNGGPSSGAPPPSG
modifications: bridge 16-20
B27: trigonal agonist of SEQ ID NO: 1 (peptide)
peptide: H[Aib]QGTFTSDVSSYLDGQAAKEFIAWLVKGC
B28: trigonal agonist of SEQ ID NO: 49 (peptide)
peptide: {Acetyl(2-(4-imidazolyl))}-[Aib]QGTFTSDYSICMDEIHQKDFVNWLLNTK
modifications: bridge 15-19
B29: trigonal agonist of SEQ ID NO: 56 (peptide)
peptide: H[Aib]QGTFTSDYSKYLDEKRQKEFVNWLLAQC
modifications: bridge 16-20
B30: trigonal agonist of SEQ ID NO: 58 (peptide)
peptide: H[Aib]QGTFTSDYSKYLDEKRQKEFVQWLLNTKC
modifications: bridge 16-20

molecular target: human GLP-1 receptor (human, UniProt P43220 24-463); test: cell-based or functional assay

| Binder | In vitro activity relative to native peptide (%), vs. GLP-1 (cAMP EC50) [%] |
| --- | --- |
| B1 | 161 |
| B2 | 34.3 |
| B3 | 1.3 |
| B4 | 6.6 |
| B5 | 1.5 |
| B6 | 1.4 |
| B7 | 2.4 |
| B8 | 12.6 |
| B9 | 75.2 |
| B10 | 2.3 |
| B11 | 13.9 |
| B12 | 11.7 |
| B13 | 7.5 |
| B14 | 14.4 |
| B15 | 30.6 |
| B16 | 67.4 |
| B17 | 8.5 |
| B18 | 33.9 |
| B19 | 17 |
| B20 | 236 |
| B21 | 27.1 |
| B22 | 40.3 |
| B23 | 42.1 |
| B24 | 44.1 |
| B25 | 19.1 |
| B26 | 37.4 |
| B27 | 3.2 |
| B28 | 29.8 |
| B29 | 57.9 |
| B30 | 39.1 |

molecular target: human GCG receptor (human, UniProt P47871 26-477); test: cell-based or functional assay
Sequence (P47871 26-477): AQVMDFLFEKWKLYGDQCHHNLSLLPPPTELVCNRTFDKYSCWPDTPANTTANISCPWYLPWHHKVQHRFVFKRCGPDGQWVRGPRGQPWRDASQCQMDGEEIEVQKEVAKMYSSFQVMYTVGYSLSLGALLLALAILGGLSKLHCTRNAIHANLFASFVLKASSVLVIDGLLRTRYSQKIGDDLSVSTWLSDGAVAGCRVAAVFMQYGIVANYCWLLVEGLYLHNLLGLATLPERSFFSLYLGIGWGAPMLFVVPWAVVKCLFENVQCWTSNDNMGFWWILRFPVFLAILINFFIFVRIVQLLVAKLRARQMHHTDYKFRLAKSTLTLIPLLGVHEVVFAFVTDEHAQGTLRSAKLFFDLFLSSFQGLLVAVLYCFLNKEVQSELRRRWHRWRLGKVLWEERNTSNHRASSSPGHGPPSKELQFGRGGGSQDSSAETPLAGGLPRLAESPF

| Binder | In vitro activity relative to native peptide (%), vs. Glucagon (cAMP EC50) [%] |
| --- | --- |
| B1 | 8.4 |
| B2 | < 0.1 |
| B3 | < 0.1 |
| B4 | < 0.1 |
| B5 | < 0.1 |
| B6 | < 0.1 |
| B7 | < 0.1 |
| B8 | 88.4 |
| B9 | < 0.1 |
| B11 | 0.53 |
| B12 | < 0.1 |
| B13 | < 0.1 |
| B14 | 2 |
| B15 | 1.4 |
| B16 | 50.5 |
| B17 | < 0.1 |
| B18 | 206 |
| B19 | < 0.1 |
| B20 | 6.21 |
| B21 | 0.7 |
| B22 | < 0.1 |
| B23 | < 0.1 |
| B24 | 7.5 |
| B25 | 0.92 |
| B26 | 0.39 |
| B27 | < 0.1 |
| B28 | < 0.1 |
| B29 | 4.9 |
| B30 | 2.6 |

molecular target: T1, human GIP receptor; test: cell-based or functional assay

| Binder | In vitro activity relative to native peptide (%), vs. GIP (cAMP EC50) [%] |
| --- | --- |
| B1 | 1.3 |
| B2 | < 0.1 |
| B3 | < 0.1 |
| B4 | < 0.1 |
| B5 | < 0.1 |
| B6 | < 0.1 |
| B7 | < 0.1 |
| B8 | 3.7 |
| B9 | < 0.1 |
| B11 | < 0.1 |
| B12 | 0.3 |
| B13 | 1.3 |
| B14 | 0.1 |
| B15 | 0.1 |
| B16 | 2.7 |
| B17 | < 0.1 |
| B18 | 7.8 |
| B19 | < 0.1 |
| B20 | 2.2 |
| B21 | 2.4 |
| B22 | 4 |
| B23 | < 0.1 |
| B24 | 0.3 |
| B25 | 0.6 |
| B26 | 0.2 |
| B27 | < 0.1 |
| B28 | 3.3 |
| B29 | 0.8 |
| B30 | 0.2 |
